According to article PMC9399094:
One block for each substance: values may come before it.

Columns and labels:
[1] = target: S.c. Mcm2-7 complex with S6- and 3xFlag-tagged Mcm3, fluorescently labeled (S. cerevisiae) (UniProt P29469); assay: single-molecule photobleaching step counting (optical tweezers with confocal microscopy); LD650-MCM on nucleosome-free λ_(ARS1) DNA with unlabeled ORC, Cdc6, Cdt1; oxygen scavenging system omitted; labeling efficiency of MCM ~60%; two hexamers to a double hexamer on DNA
[2] = test system: ORC (Orc1-6);Cdc6 (Saccharomyces cerevisiae (overexpressed in strain OY001);Saccharomyces cerevisiae); assay: single-molecule fluorescence, optical tweezers; conditions: biotinylated ends, H2A K120C, Single-molecule optical tweezers with confocal fluorescence, ATP present, 2 nM ORC, 5 nM Cdc6, 10 nM MCM, high-salt wash 0.5 M NaCl, buffer, pH and temperature …
[3] = target: S.c. nucleosome: recombinant S. cerevisiae histone octamer (H2A K120C, fluorescently labeled) assembled on λ_(ARS1) DNA (S. cerevisiae) (UniProt P04911); assay: single-molecule fluorescence colocalisation (dual-trap optical tweezers with confocal microscopy); nucleosomes sparsely assembled on λ_(ARS1) DNA tethered between streptavidin beads; 2 nM Cy3- or LD650-ORC and 5 nM Cdc6 in solution; 25 mM Tris-OAc pH 7.5, 50 mM potassium glutamate, 10 mM Mg(OAc)2, 2.5 mM ATP; room temperature
[4] = test system: ORC (Orc1-6);MCM (Mcm2-7);Cdc6;Cdt1 (Saccharomyces cerevisiae (overexpressed in strain OY001);Saccharomyces cerevisiae (overexpressed in strain OY001);Saccharomyces cerevisiae;Saccharomyces cerevisiae); assay: single-molecule fluorescence, optical tweezers; conditions: Single-molecule optical tweezers with confocal fluorescence, ATP present, 2 nM ORC, 5 nM Cdc6, 10 nM MCM, high-salt wash 0.5 M NaCl, buffer, pH and temperature …

fraction of MCM with two-step photobleaching [1]: 36%
stoichiometry N [1]: 2
Substance: S.c. Mcm2-7 complex with S6- and 3xFlag-tagged Mcm3, fluorescently labeled, P29469 1-868; P24279 1-971; P30665 1-933; P29496 1-775; P53091 1-1017; P38132 1-845

Substance: S.c. nucleosomes on λARS1 DNA (all positions)
binding signal (% of nucleosomes with stably bound ORC) ([2]; S. cerevisiae octamer): > 90

fraction of nucleosomes with a stably bound ORC at 2 nM ORC [3]: > 90%
Substance: S.c. origin recognition complex (Orc1-6) with S6-3xFlag-Orc1, fluorescently labeled (from UniProt P54784 1-914; P32833 1-620; P54790 1-616; P54791 1-529; P50874 1-479; P38826 1-435)

Substance: X.l. nucleosomes on λARS1 DNA (all positions)
binding signal (% of nucleosomes with stably bound ORC) ([2]; Xenopus laevis octamer): > 90

Substance: λARS1 DNA, ARS1 site
binding signal ([4]; 0.5 M NaCl wash, biotinylated ends (biotin-11-dUTP, biotin-14-dCTP fill-in), scale: % of MCM loaded): 62

Substance: λARS1 DNA, non-ARS1 positions
binding signal ([4]; 10 nM MCM, 5 nM Cdc6, biotinylated ends, scale: % of stably bound MCM located at non-ARS1 positions): 86
binding signal ([4]; 0.5 M NaCl wash, biotinylated ends, scale: % of MCM loaded): 25
